# Test results from publication PMC10986502.
# Test system: His6-Fur (Riemerella anatipestifer CH-1)
# Test: EMSA
# Conditions: 5 mM Mn2+ (surrogate for Fe2+); EMSA: 2.5% glycerol, 0.05% NP-40, 5 mM MgCl2, 1 uM ZnSO4, 5 mM MnCl2; 1 ug DNA, 2-8 ug Fur in 20 uL; room temperature 20 min; pH and salt not given; 6% native …
substance,measurement,value
rhuB promoter (194 bp),Kd,4.3 nM
